System: MS2 coat protein
Assay: apparent KD of MS2 coat protein; designed switch direction (-1 OFF switch, 1 ON switch): -1; higher = weaker reporter binding
In short: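 RNA switches sharing common flanks were transcribed by stalled E. coli RNA polymerase on Illumina chips. A doubling series of SNAP-549-labelled MS2 coat protein, from 0.7 or 1.5 nM to 3 µM, was applied in Tris-HCl pH 7.5 buffer with KCl, MgCl2, BSA, DTT, tRNA and Tween-20. Each step lasted 0.8–1.5 h at the bottom of the series and 10–20 min at the top. Normalised cluster fluorescence was curve-fitted, giving apparent KD as the per-design median over clusters.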

[1] = Eterna round: R95, input ligand: microRNA oligo, concentration not stated
[2] = input ligand: microRNA oligo, concentration not stated
[3] = Eterna round: R95, input ligand: FMN 200 uM
[4] = Eterna round: R95, input ligand: none

Sequence: GAAAACGCUGAGGAUAUUUCUGAUCAAAGCAGCAAAGAAGGCAGCACAUGAGGAUCACCCAUGUGGUCUUCAAU [Mat - Exclusion 6 - JL Mod - D11] (Eterna round: R97, puzzle: Exclusion 6)
- apparent KD of MS2 coat protein (input ligand: FMN 200 uM): 445 nM
- apparent KD of MS2 coat protein (input ligand: none): 33 nM

Sequence: AUUAAGCAGCAGGAUAUAAGUAUCUAAAGGUGGUUAGAAGGGCUGACAUGAGGAUCACCCAUGUGCUCUUCGUG [Reusat] (puzzle: Exclusion 6)
- apparent KD of MS2 coat protein [1]: 13.3 nM

Sequence: UGUUCGUCAGGAUAUUCUACUUAUUACAUGAGGAUCACCCAUGUGUAUGUACAAGGGUGUGAAGAAGGGACUUGUU [LRO-Excl5-08-mod A17d by Omei] (Eterna round: R97, puzzle: Exclusion 5)
- apparent KD of MS2 coat protein (input ligand: FMN 200 uM): 245 nM
- apparent KD of MS2 coat protein (input ligand: none): 885 nM

Sequence: GUCAGACGAGGAUAUAAAUUUGAUAACAUGAGGAUCACCCAUGUGAUCGAUAGAUCAAAUUUAGAAGGCGUCUGAC [E5/7-A4] (Eterna round: R97, puzzle: Exclusion 5)
- apparent KD of MS2 coat protein (input ligand: FMN 200 uM): 520 nM
- apparent KD of MS2 coat protein (input ligand: none): 492 nM

Sequence: CCGGAUAUGCAGGAUAUCGUAUCGGAAACGAUACGAGAAGGGUAUACAUGAGGAUCACCCAUGUGCCUUACCGG [Fiskers Ex 6 - 19] (puzzle: Exclusion 6)
- apparent KD of MS2 coat protein [1]: 16 nM

Sequence: ACUUACUGAGGAUAUGCGUGGAUAAACAUGAGGAUCACCCAUGUUCCUAUAAGUAUGUAUGUAGAAGGCAGAAGAA [JR_Ex5_Sub075] (Eterna round: R97, puzzle: Exclusion 5)
- apparent KD of MS2 coat protein (input ligand: FMN 200 uM): 60.5 nM
- apparent KD of MS2 coat protein (input ligand: none): 130 nM

Sequence: GCGCACCUACCAAAAGGUAGGUCCACAUGAGGAUCACCCAUGUAGGAUAUCGAUUGCUUUGCAGUCGAGAAGGACGUGAUGCGC [JL ENG3 3.80 Mod 16] (Eterna round: R96, puzzle: Exclusion NG 3)
- apparent KD of MS2 coat protein (input ligand: FMN 200 uM): 51.6 nM
- apparent KD of MS2 coat protein [2]: 27.3 nM
- apparent KD of MS2 coat protein (input ligand: none): 32.3 nM

Sequence: AAUCCACAUGAGGAUCACCCAUGUGAGGAUAUGUCCAUAUUCGGCAAAUCGGAUAUGGACAGAAGGCACAUAAA [JR_Exclusion1_Sub013] (Eterna round: R96, puzzle: Exclusion 1)
- apparent KD of MS2 coat protein (input ligand: FMN 200 uM): 99.5 nM
- apparent KD of MS2 coat protein [2]: 21 nM
- apparent KD of MS2 coat protein (input ligand: none): 26.5 nM

Sequence: UACCUGAGGCUUUGCUUUAGGUUUACAUGAGGAUCACCCAUGUAGGAUAUGGUAGGCUUUGCUUACCAGAAGGACAUGUUAAUU [JL ENG3 1.08] (Eterna round: R96, puzzle: Exclusion NG 3)
- apparent KD of MS2 coat protein (input ligand: FMN 200 uM): 190 nM
- apparent KD of MS2 coat protein [2]: 64.9 nM
- apparent KD of MS2 coat protein (input ligand: none): 59.9 nM

Sequence: CGAGUACAUGAGGAUCACCCAUGUUAGGAUAUUGGUAUCAAAAGAGUCCGAUCUGAUCCAAGAAGGAGCAUGCC [Eternabot (L2) Solution 78] (Eterna round: R97, puzzle: Exclusion 1)
- apparent KD of MS2 coat protein (input ligand: FMN 200 uM): 32.5 nM
- apparent KD of MS2 coat protein (input ligand: none): 27.1 nM

Sequence: CAGGCUACAAACGCUCGUCACAUGAGGAUCACCCAUGUACGCCUCUAUCGUAAGUCCAGCGUUCGCUGGCAAGGGUA [Eternabot (Original) Solution 19] (Eterna round: R97, puzzle: Sensor, turn-off variant 1)
- apparent KD of MS2 coat protein (input ligand: FMN 200 uM): 47.5 nM
- apparent KD of MS2 coat protein (input ligand: none): 56.2 nM

Sequence: CCUUUGUCAGGAUAUCAGAACGCGCUCCUAGGGAGCGCAAAUGAGAAGGGACAUGAGGAUCACCCAUGUAAAGA [Erditive] (puzzle: Exclusion 4)
- apparent KD of MS2 coat protein [3]: 228 nM
- apparent KD of MS2 coat protein [1]: 48.9 nM
- apparent KD of MS2 coat protein [4]: 59.2 nM

Sequence: AAAAGUGAAGAGGAUAUCUGCGCCGAACGGUAAAGAGAAGGCUUCACAUGAGGAUCACCCAUGUGGGCCACAGA [EX6 C.5] (Eterna round: R97, puzzle: Exclusion 6)
- apparent KD of MS2 coat protein (input ligand: FMN 200 uM): 79.3 nM
- apparent KD of MS2 coat protein (input ligand: none): 19.8 nM

Sequence: UAAUUCAGAGGAUAUGCGCAUAGAUAAGACUUUUUUUUUUAACAUGAGGAUCACCCAUGUAGAAGGCUGUAAUU [Ex2 #54] (Eterna round: R97, puzzle: Exclusion 2)
- apparent KD of MS2 coat protein (input ligand: FMN 200 uM): 24 nM
- apparent KD of MS2 coat protein (input ligand: none): 23.1 nM

Sequence: CAUUAUGUUGAGGAUAUGCGCCGGCAAACUGACGCAGAAGGCGACACAUGAGGAUCACCCAUGUCAGUUCGCGA [salish99_ex6_r004_423] (Eterna round: R97, puzzle: Exclusion 6)
- apparent KD of MS2 coat protein (input ligand: FMN 200 uM): 13.3 nM
- apparent KD of MS2 coat protein (input ligand: none): 14.9 nM

Sequence: UAGAUACAUGAGGAUCACCCAUGUGAGGAUAUGAGUCAGUCACGGUGACGUGGCUGACUCAGAAGGCACAAAGG [Mat - Exclusion 1 - JL Mod - D36] (Eterna round: R97, puzzle: Exclusion 1)
- apparent KD of MS2 coat protein (input ligand: FMN 200 uM): 365 nM
- apparent KD of MS2 coat protein (input ligand: none): 202 nM

Sequence: AGUAACUAUCACGAAAGUGAUAGUUACACAAGCAGUGAUACAUGAGGAUCACCCAUGUCCUCAUUUGCUCGUCUUAU [Sensor 3 - 28] (puzzle: Sensor v3, turn-off variant 2)
- apparent KD of MS2 coat protein [3]: 83.6 nM
- apparent KD of MS2 coat protein [1]: 698 nM
- apparent KD of MS2 coat protein [4]: 91 nM

Reference: the supplement of paper PMC9170038
